Experimental data as given in patent publication US20250011363A1, “OPTIMIZED SHORTENED PEPTIDE THAT BINDS TO ACETYLCHOLINE RECEPTOR, AND USE THEREOF” (SKINMED CO., LTD., priority 2021, published 2025).

Biological target: acetylcholine receptor
Assay: SPR, AchR immobilised on CM5 chip, peptide at 10 uM

Binding affinity (RU)	Binder
142 RU	RRGFQK [6mer-1-438]
30 RU	KTPVR [5mer-887]
137 RU	KKQRQK [6mer-1-404]
146 RU	RRRQQK [6mer-1-447]
124 RU	RRVIRR [6mer-1-446]
135 RU	RKWRCK [6mer-1-435]
14 RU	RDSMK [5mer-1184]
131 RU	RKGVQK [6mer-1-425]
121 RU	RRQRSR [6mer-1-411]
30 RU	KPTGR [5mer-1185]
31 RU	KKCIR [5mer-888]
135 RU	RKVLYR [6mer-1-421]
153 RU	KRLRTR [6mer-1-407]
24 RU	RICIR [5mer-1196]
148 RU	RKQFCR [6mer-1-413]
148 RU	KRGFYR [6mer-1-419]
147 RU	RRGYCK [6mer-1-423]
148 RU	KRVLRK [6mer-1-410]
148 RU	KKLFYK [6mer-1-436]
144 RU	KKWILK [6mer-1-444]
131 RU	KKGQYR [6mer-1-426]
144 RU	RRRFRR [6mer-1-431]
30 RU	RMDWK [5mer-1191]
18 RU	RFTKK [5mer-895]
153 RU	RKVLLR [6mer-1-406]
32 RU	RFSEK [5mer-1190]
24 RU	KDDAR [5mer-1197]

Binding affinity (RU)	Binder
145 RU	KRVRLR [6mer-1-445]
139 RU	KRVVLR [6mer-1-428]
146 RU	RRVYYR [6mer-1-441]
28 RU	RYAKK [5mer-1192]
13 RU	RHAPK [5mer-1183]
28 RU	KIWEK [5mer-884]
153 RU	KRSFLR [6mer-1-414]
11 RU	RKMDK [5mer-1189]
153 RU	RKLIYR [6mer-1-416]
139 RU	RKSILK [6mer-1-412]
135 RU	RRGVCR [6mer-1-415]
121 RU	KRRQTK [6mer-1-439]
15 RU	REKWK [5mer-1182]
144 RU	RRWISR [6mer-1-409]
154 RU	RKQQYR [6mer-1-433]
153 RU	KRSQTK [6mer-1-403]
25 RU	KTPGR [5mer-889]
30 RU	KFCER [5mer-897]
153 RU	KRVYSK [6mer-1-440]
144 RU	KKQLQK [6mer-1-430]
123 RU	RRQVRK [6mer-1-418]
154 RU	KRVRQR [6mer-1-422]
16 RU	KMSAK [5mer-883]
147 RU	KRWVLR [6mer-1-427]
18 RU	KMSPR [5mer-894]
131 RU	RKLQYK [6mer-1-442]
24 RU	RKKMK [5mer-891]

Binding affinity (RU)	Binder
20 RU	RYCMR [5mer-898]
21 RU	RMMFR [5mer-886]
139 RU	RKGIQK [6mer-1-432]
139 RU	RKSVCK [6mer-1-417]
147 RU	KRGRSR [6mer-1-408]
12 RU	KMWVK [5mer-1186]
30 RU	KPSGK [5mer-1188]
27 RU	KHHIR [5mer-1187]
19 RU	RHCNR [5mer-885]
29 RU	RKPMR [5mer-892]
135 RU	RRQRRK [6mer-1-429]
137 RU	KRWVCR [6mer-1-434]
148 RU	KKVQTR [6mer-1-1405]
131 RU	RKWFLK [6mer-1-437]
145 RU	RKVLLK [6mer-1-443]
148 RU	KKGQYK [6mer-1-420]
18 RU	RDNGK [5mer-1194]
19 RU	RHWEK [5mer-1195]
135 RU	RRRIYR [6mer-1-424]
27 RU	RYHWR [5mer-896]
153 RU	RRRVLR [6mer-1-402]
18 RU	RIKIK [5mer-893]
33 RU	KKHFK [5mer-890]
25 RU	RAADK [5mer-1198]
22 RU	KHWFK [5mer-1193]
